Measured values as given in patent publication US20170321218A1, “FACTOR XIA-SPECIFIC APTAMERS” (CANADIAN BLOOD SERVICES, published 2017).
One block for each molecule: values may come before it.

Experiments:
[1] = target: thrombin (UniProt P00734); experiment: cell-based or functional assay
[2] = target: T1, Factor XIa (FXIa) (UniProt P03951;P03951 P03951:19-387,P03951:388-625); experiment: SPR; ±0.1 nM; ka 5.2e4 M-1s-1, kd 9.5e-5 s-1; 100 mM HEPES pH 7.4, 150 mM NaCl, 0.01% Tween 20, 25 C; SCRAPT reference cell subtracted; settings: chain copies: 2,2; label: 3'-biotin; predicted stem-loop hairpin with bulge and two small loops
T1 sequence (P03951 19-387, chain 1 of 2): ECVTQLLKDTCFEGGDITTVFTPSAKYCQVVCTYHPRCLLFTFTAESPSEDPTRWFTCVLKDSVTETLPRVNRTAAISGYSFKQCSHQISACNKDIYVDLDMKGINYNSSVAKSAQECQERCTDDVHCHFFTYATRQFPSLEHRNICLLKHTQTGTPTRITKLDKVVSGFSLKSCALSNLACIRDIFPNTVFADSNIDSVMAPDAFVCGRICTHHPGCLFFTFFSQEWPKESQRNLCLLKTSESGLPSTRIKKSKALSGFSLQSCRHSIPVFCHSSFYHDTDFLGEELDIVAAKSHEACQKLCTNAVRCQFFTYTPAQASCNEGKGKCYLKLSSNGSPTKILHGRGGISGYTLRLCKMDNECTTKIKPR
T1 sequence (P03951 388-625, chain 2 of 2): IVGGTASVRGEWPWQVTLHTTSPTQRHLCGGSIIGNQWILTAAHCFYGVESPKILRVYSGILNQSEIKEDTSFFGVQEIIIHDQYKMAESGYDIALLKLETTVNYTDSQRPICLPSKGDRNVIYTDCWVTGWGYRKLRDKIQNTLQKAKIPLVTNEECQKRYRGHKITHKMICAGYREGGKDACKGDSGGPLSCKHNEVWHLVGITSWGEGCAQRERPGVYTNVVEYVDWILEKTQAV
Experimental: Kinetic measurements of aptamer binding were analyzed by SPR on a Biacore T200 (GE Healthcare). To immobilize the aptamer, a CM5 sensor chip (GE Healthcare) was activated with a 0.2 M N-ethyl-N′-(dimethylamino-propyl) carbodiimide (EDC) and 0.05 M N-hydroxysuccinimide (NHS) (Sigma) solution, followed by binding of streptavidin (0.2 mg/ml, pH 4.5). FELIAP and SCRAPT (3′ biotinylated) in 100 mM HEPES (pH 7.4), 150 mM NaCl, 0.01% Tween 20 were immobilized on the streptavidin-coated chips at a flow rate of 10 μL/min to 100 response units (RU). Flow cells were regenerated with 0.2% SDS (w/vol). FXIa at concentrations varying from 15.671 nM to 500 nM was injected at a flow rate of 50 μl/min for 180 s to monitor association, and HEPES buffer for 1800 s to monitor dissociation. The signal from the SCRAPT-immobilized flow cell was used as a reference and subtracted from the signal arising from FXIa binding to the FELIAP-immobilized cell. Binding of FXIa and aptamer was quantified by global analysis of on and off rates using the Langmuir 1:1 binding model, as determined with the instrument's software provided by the manufacturer (Biacore). All experiments were done in triplicate.

[3] = target: T1, Factor XIa (FXIa); experiment: inhibition; competitive inhibition of S2366 amidolysis; PPNE pH 7.4, 37 C; settings: chain copies: 2,2; predicted stem-loop hairpin with bulge and two small loops
Experimental: The mode of inhibition of FELIAP was investigated by fixing the concentrations of chromogenic substrate and FXIa and increasing the concentration of FELIAP and measuring the rate of substrate cleavage. A dose-dependent reduction in the reaction rate was observed as FELIAP was increased from 0 to 20 μM, while the same concentrations of SCRAPT had no inhibitory effect (FIG. 2A). Next, the concentration of chromogenic substrate S2366 was varied while keeping FXIa constant at different concentrations of FELIAP (FIG. 2B).

thrombin generation assay, FXI-depleted plasma with tissue factor: time to peak thrombin [1]: 3.1 fold
Molecule: recombinant His-tagged hirudin variant 3

B1: FELIAP 3'-biotin (ssDNA)
DNA: GAATTCTAATACGACTCACTATAAACCTATCGGACTATTGTTAGTGATTTTTATAGTGTGCGTCCAACACATCG
Kd [2]: 0.0018 µM

B2: FELIAP (Apt10-10) (ssDNA)
DNA: GAATTCTAATACGACTCACTATAAACCTATCGGACTATTGTTAGTGATTTTTATAGTGTGCGTCCAACACATCG
Ki [3]: 29 µM
